Experimental data taken from the nanobody polyreactivity screen of Harvey et al. (2022).

Assay: yeast display, Sf9 membrane polyspecificity reagent, FACS + sequencing; frameworks hold sequencing errors
How it was run: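 A synthetic nanobody library was expressed on Saccharomyces cerevisiae BJ5465 by galactose induction for 36–48 hours. The library was stained for 1 hour at 4 °C with 10% biotinylated, detergent-solubilized Sf9 membrane reagent and enriched with streptavidin microbeads before FACS. Low and high (top ~1%) gates were set on anti-HA fluorescence for expression and streptavidin fluorescence for reagent binding, and each polyreactivity label reflects the gate of origin.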

Sequence	polyreactivity (PSR sort gate)
QLQLVESGGGLVQAGGSLRLSCAASGSTFAANAMGRYRQAPGKERELVAASTSSGGSTYYADSVKGRFTISRDNAQNTVYLQMNSLKPEDTAVYYCAADRWYITLSIDATISYDYWGQGTQVTVSS	low polyreactivity
QLQLVESGGGLVQAGGSLRLSCAASGSTFTDYAMGWYRQAPGKERELVAAISWSGGSTYYADSVKGRFTISRDNAKNTVYLQMNSLKPEDTAVYYCAFRYHGYDYWGQGTQVTVSS	high polyreactivity
QLQLVESGGGLVQAGGSLRLSCAASGSTIDHNAMGWYRQAPGKERELVATISSSGGSTYYADSVKGRFTISRDNAKNTVYFQMNSLKPEDTAGYDCNRYFRRGGRYPYNYWGQGTQVTVSS	high polyreactivity
QLQLVESGGGLVQAGGSLRLSCAASGSTYHINAMGWYRQAPGKERELVADINWSGGSTYYADSVKGRFTISRDNAKNTVYLQMNSLKPEDTAVYYCAADVGVFTYSPYDAGEHDYWGQGTQVTVSS	low polyreactivity
QLQLVESGGGLVQAGGSLRLSCAASGYTFTSYTKGWYRQAPGKEWELVAAITWTGGRTYYADSVKGRFTISRDNAKNTVYLQMNSLKPEDTAVYFCAGSWRKVDYWGQGTQVTVSS	high polyreactivity
QLQLVESGGGLVQAGGSLRLSCAPSGLTFGRYAMGGYRHAPGKERELVAAITARVGRTYYADSVKGRFTISRDNEKNTVYLQMNSLKPEDTAVYYCAAGPSYFWYSHEKYDYWGQGTQVTVSS	high polyreactivity
QLQLVESGGGLVQAGGSLRLSCASTGSIFRPSPMGWYRPAPGKDRELVPDITWSGGSTYYADSVKGRFTISRDNAKNTVYLQMNSLKPEDTAVYYCAARFSYWARNSEYWGQGTQVTVSS	low polyreactivity
QLQLVESGGGLVQAGGSLRRSCAPSGRILWVNAMGWSRQAPGKERELVAAISLSGGRTYYADSVKGRFTISRDNAKNTVYLQMNSLKPEDTAVYYCAARTVNYYYTTGDYWGQGTQVTVSS	low polyreactivity
QLQLVESGGGLVQAVGSLRLSCAATGSIFYPYAMGWNRQAPGKERELVASISWSGGITYYADSVKGRFTISRDNAKNTVYLQMNSLKPEDTAVYYCAADFSWYLYDYDYWGQGTQVTVSS	low polyreactivity
QLQLVESGGRLVQAGGSLRLSCAASGRTFGRYAMGWYIQAPGKEREFVSSISRSTGRTSYADSVKGRFTISRANAKNTVYLQMNSLKPEDTAVYYCAVRWYYYRDDTIYVLGRYDYWGQGTQVTVSS	high polyreactivity
QLQLVESRGGLVQAGGSLRLSCASYGSIFIWYAMGWYRQATGKERELVAAITSSGSTNYADSVKGRFTISRDNAKNPVYLQMNSLKPEDTAVYYCAAEYTYYTYNLNYWGQGTQVTVSS	low polyreactivity
QLQLVESVGGLVQAGGSLRLSCAGSGRIFGRSAMGWYTHAPGKHRALVAAISRSGGSTYYADSVKGRVTISRDKAKNTVYLQMYSLKPEDTAVYNCNRRYITYNDDYWGQGTQVTVSS	high polyreactivity
QLQLVQSGGGLVQAGGILRLSCAPSGSIFTPNTMGWYSQAPGKERELVAAITIRGGSTYYADSVKGSFTISRDNANITVYLQMNSLKPEDTAVYYCATEYGLRYYLVDYWGQGTQVTVSS	low polyreactivity
QMQLQESGGGLVQAGGSLRLSCAPSGTIIRVRYMGWHRQAPGKDRELVAGINGGTTTYNSDSVIGRFTISRDNANNTVFLQMNSLKPDDTAVYKCAAGASRLTYYDYWGQGTQVTVSS	low polyreactivity
QMQLQESGGGLVQAGGSQRLSCAASDSISIGAGMGWYRQAPGKERELVAGISVGTSTNYADSVNGRFTISRVNAKNTVYLQMNSLKPEDTAVYYCAKGYRRVYGPFYYWGQGTQVTVSS	low polyreactivity
QQLQESGGGLVQAGGSLRLSCAASGSISGSVLMGWYRQAPGKEREFVASISLGGNTNYADSVKGRFTISRENAKNTVYLQMNSLKPEVAAVYYCAAYISLFETHPYWGQGTQVTVSS	high polyreactivity
QVDLVESGGGLVQAGGSLRLSCAASGRTFQFNGMGWYRQAPVKERELVAGITSGGSTYYADSVKGRFTISRDNAKTTVYLQMISLKPEDTAVYYCAKDDPYFRGSPYFGRYPYGYWGQGTEVTVSS	high polyreactivity
QVELVESGGGLDQAGGSLRLSCAASGFIFRWYAMGWYRQAPGKERELVAAITRGTRTNYADSVKGRFTISRDNAKNTVYLQMNSLKPEDTAVYYCAADFSRDAYRNYYYWGQGTQVTVSS	high polyreactivity
QVELVESGGGLVQAGGSLRISCDASGSTFRWYAMGWYRQGPGKERELVAAINRSGGSTYYADSVKGRFTISRDNAKNTVYLQMNSLKPEDTAVYYCEARWYSSSRWYKYNYWGQGTQVTVSS	high polyreactivity
QVELVESGGGLVQAGGSLRLSCAASGLTCVSYAMGWYRQAPGKERELVAAISRSGGSTYYADSVKGRFTISRDNAKNTVYLQMNSLKPVDTAVYYGNAYSYVDFCAVYRYDYWGQGTQLTVSS	high polyreactivity
QVELVESGGGLVQAGGSLRLSCPASGRTFYYYAMGWSRQEPGKERELVATITKSSGSTYYADSVKGRFTISRDNAKNTVYLQMNSLKPEDTAVYYCNADPWAKTPYYYWGQGTQVTVSS	high polyreactivity
QVELVESGGGLVQPGGRLRLSCAASGRIFRYNTMGWYRQAPGKEREFVAAITQRGVNTYYADSVKGRFTISRDNAKNTVYLQRNSLKPEDTAVYYCNAKRYSYWIYRAYDYWGQGTQVTVSS	low polyreactivity

Sequence	polyreactivity (PSR sort gate)
QVELVVSGGGLVQAGGSLRLSCAASGRIFYRYAMGWYRQAPGKERELVAAISGRGGSTYYADSVKGRFTISRDNAKNTVYLQMNSLKPEDTAVYYCNALPVYRSLAYEVDYWGQGTQVTVSS	high polyreactivity
QVHHEETGGGLVQAGGSLRLSCSASGRTFVYYDMGWYRHATGKERQLVAAIDSSGSTYYADSVKGRFTISRDNAKNTVYLQMNSLKPEDSAVYYCGAGYWFFPYWYDYWGQGTQVTVSS	high polyreactivity
QVHHVDSGGGIVKAGGSLRLSCPASGFIFPRNVLGWSRQEPGKERELVAAISRSGGSTYYADSVKGRFTISRDNAKNTVYLPMNSLKPEDTAVYYGGKRTFYNGEFWGQGTQVTVSS	low polyreactivity
QVHHVESGAGLVQAGGSLRLSSAASGRTFGSNTKGCYSQAPGKERELVAAITISGGSTYYADSVKGRFTISRDNAKNTVYLKMNSLKPEDTAVYYCATRLWGHGGGRTTSYMYNWRQGTQVTVSS	high polyreactivity
QVHHVESGGGLVQAGGSLRISCAASGAIFFFNTMGWYRLAPGKERELVAVITSGGSTYYADSVKGRFTISRDNAKNTVYLQMNSLKPEDTAVYYCNAYTWGVGSSLDDVGYWGQGTQVTVSS	low polyreactivity
QVHHVETGGGLDQAGGTLRLSCAASGRTFCTNAMGWSRQAPGKEWELVAAISSSGGSTYYADSVKGRFTISRDNAKNTVYLQMNSLKPEDTAVYYCAKGWHRGVGFCYWGQGTQVTVSS	high polyreactivity
QVHIVESGGRLFQAGGSLRLSCAASGFTFAYYAMGWYRQAPGKEREMVAAISRGGTSTYYADSVKGRFTISRDNATNPVYLQMNSLKPEDTAVFYCNAVKVGYSLYDFWGQGTQVTVSS	high polyreactivity
QVHLEESGGGLVQAGGSLRLRCAASGFTFGHYTMGWYRQAPGKERELVAAITWRGGTYYADSVKGRFTISRDNAKNTVYLQMNSLKPEDTAVYYCNARFGQTVKGTYGRYYYWGQGTQVTVSS	high polyreactivity
QVHLEESGGGLVQAGGSLRLSCAASGLTFQWNAMGWYRQAPGKERELVAAISYSGGSTYYAYSVKGRFTISRDNAKYCVYLQMKSLKPEDTAVYYCAARTYSQWLQRYRLLGQGTQVTVSS	high polyreactivity
QVHLEESGGGLVQAGGSLRLSCAASGSIFGDNAKGWYRQAPGKERELVAAISSSGGSTYADSVKGRFTISRDNAKNTVYLQMNSLKPEDTAVYYCATQIAWCTYVINPQMDFWGQGTLVTVSS	low polyreactivity
QVHLEESGGGLVQAGGSLRLTCAASGFTFQLYAMGWYRQPPGKERELVAAINYRGSSTYYADSVKGRFTISRDNAKNTVYLQMNSLKPEDTAVYYCNAAQYYERFNHWGQGTQVTVSS	high polyreactivity
QVHLHETGGGLVQAGGSLRLSCAASGTISVTYNMGWYRQAPGKEREFVAGNSTGATTNYADSVKGRFTISRDNANNTVYLQMNSLKPEDTAVYYCAAHIYRKDHFYYWGQGTQVTVSS	low polyreactivity
QVHLLASGGGLVQAGGSLGLSCAASGRPFNGYALGWYRPAPGSERELVASITLRGGSTYYADSVKGRFTISRDNAKYTVYLQMNCLKPEDTAVYYCNARPNTRRYTFPYGNCGQGTQVTVSS	high polyreactivity
QVHLLDSGGGLVQEGGSLRLSCAASGSTIYVYAMGWYRQAPGKERELVAAITWDGDRTYYADSVKGRFTISRHNAKNTVYLHMTSLNPEDSAVYYCNRDIGGTSVLDDYWGQGTQVTVSS	low polyreactivity
QVHLLESGGGLLQAGGSLRLNSDASGSTFITYCIGWFRQAPGKERELVARITLSGGSTYYADSVKGRFTSSRDNAKNTVYLQMNRLKPEDTAVYYCATDFGWQYYVLDGYYWGQGTQVTVSS	low polyreactivity
QVHLLESGGGLLQAGGSLRLSCAASGLIFRPYAMGWYRQAPGKERELVAGISFRGDSTYYADSVKGRFTISRDNAKNTVYLHMNSLKPEDTAVYYWNKRKASSSGYNYWGQGTQVTVSS	low polyreactivity
QVHLLESGGGLVQAGGSLRLSCAASGRTLSRYTMGWYRQAPGKERELVAAISTSGSTYYADSVKGRFTISRDNAKNTVYLPMNCLKPEDTAVYYCAATHWAYSRVPYDYWGQGTQVTVSS	high polyreactivity
QVHLQESGGLVQAGGLRLSCAASGSVSYHEAMGWYRQAPAKERELVATISFGANTNYADSVKGRFTISRDNAKHTVYLHMNSLKPEDTAVYYCAAESLFDDYYGYWGQGTQVTVSS	low polyreactivity
QVHLQESGSGLVQSGGSLRLTCAASGYISLGDNMGWYRQAPGKELEFVATISVGGITYYVDSVKGPFTISRDIEKNTVYLQMNSLKPEDTAVYYCASLDIYYFRYYYWGQGTQVTVSS	low polyreactivity
QVHLVDSGGGLVQAGGPLRLTCPASGSTYRYTIGWYRQAPGKQRELVAAITGSAGRTYYADSVKGRFTISRDNAKNTVYLQMNSLKPEVTAVYYCNKVRPSKFWDYYYCGQGTQVTVSS	high polyreactivity
QVHLVDSGGGLVQAGGSLRLSCAASGLIFVSYAMGWYRQEPGKERELVASITDSDSSTYYADSVKGRFTISRDNAKNTVYLQMNSLKPEDTAVYYCATGGRTEIWYPTLDYWGQGTQVTVSS	low polyreactivity
